# Laboratory results taken from publication PMC5900708.
# Biological target: human DOT1L^CC2 (second coiled-coil domain of DOT1L) (human) (UniProt Q8TEK3)
# Test: SEC
substance,measurement,value
human DOT1L^CC2 (second coiled-coil domain of DOT1L) (from UniProt Q8TEK3 1-1537) (domain or fragment),stoichiometry N,2
